Experiment: label from the status in PepcDB records
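Note: failed if final PepcDB status was selected cloned or expressed and not failed if soluble or beyond.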

Sequence: IIAGETSIPSQGENMPAYHARPKNADGPLPIVIVVQEIFGVHEHIRDLCRRLAQEGYLAIAPELYFRQGDPNEYHDIPTLFKELVSKVPDAQVLADLDHVASWAARHGGDAHRLLITGFCWGGRITWLYAAHNPQLKAAVAWYGKLVGEKSLNSPKHPVDIAVDLNAPVLGLYGAKDASIPQDTVETMRQALRAANATAEIVVYPEADHAFNADYRASYHEESAKDGWQRMLAWFAQY
- protein production: not failed

Sequence: MHNKKWDLRIICAHAFTILIWGTAFPAIRMGLESYTPEHLTLLRLLIASFILLLFSFIYKLRLPDLKDIPAIFIFGALGFTIYHIALNYGEKTVNAGSASLIISVTPIVTAILASVFLNEKMKLNGWLGGVISFAGIALISFSQGDAIQLNSGGLFILLAAISESLFFVFQTSYLKKYGFLPFTIYTILSSTVCMLIFLPGVYQEILAAPLEVNLSVIYLGVFPTVLPYIALAYIISRAGASEATSSLYLTPITACFIAWIWLGEVPTLVSIIGGGITILGIVIAHIPVLRKEKHRNLANNQSV
- protein production: failed

Sequence: MRLLAVFVSSRLSPEDPLYARWVRYGEVLAEEGFGLACGGYQGGMEALARGVKAKGGLVVGVTAPAFFPERRGPNPFVDLELPAATLPQRIGRLLDLGAGYLALPGGVGTLAELVLAWNLLYLRRGVGRPLAVDPYWLGLLKAHGEIAPEDVGLLRVVADEEDLRRFLRSL
- protein production: not failed

Sequence: MAKRIFLFILTNILVLTTIGIVLSVLSSVTGVGTYFTADGGIDPMALLVFSLVVGFVGSFTSLAISRWMAKTMMGVRVLNPKKHSLSYEEQQLVDRVHRLSRSAGLTKMPEVGIYRSPEVNAFATGPSKRRSLVAVSSGLLEQMDDAAVEGVLAHEVAHITNGDMVTMTLLQGIVNTFVVFLSRIAAWIASRFVKEDLAPIVHFIAMIIFQIVFSILGSLVVFAYSRHREFHADRGGADLAGKDKMIHALRTLKSYSSRILEDDQTAVQTLKINGKKRSSLFSTHPDLDERIRRLEAK
- protein production: failed

Sequence: MTEILPHVNDEVLPAEYELNQPEPEHCPGPESDMAGKSDACGGCANKEICESLPKGPDPDIPLITDNLSGIEHKILVLSGKGGVGKSTFAAMLSWALSADEDLQVGAMDLDICGPSLPHMLGCIKETVHESNSGWTPVYVTDNLATMSIQYMLPEDDSAIIWRGSKKNLLIKKFLKDVDWDKLDYLVIDTPPGTSDEHISINKYMRESGIDGALVVTTPQEVALLDVRKEIDFCKKAGINILGLVENMSGFVCPNCKGESQIFKATTGGGEALCKELGIKFLGSVPLDPRIGKSCDMGESFLDNYPDSPASSAVLNVVEALRDAVGDV
- protein production: failed

Sequence: MNEKKEQALFEYDAKLSISEAIPMGLQHVVAAVVGIVTPGIMIAKVCQLSPSDTTILIQTSLIFSAVATLIQLFPIFGKVGSRLPVMMGASFAYVPILMAIGADFGIAAIFGSQLVGSILVIIVGLFIKKIRVLFPPLVTGTVILSIGLSLFPVAIKYMAGGAGSADFGSARNWLVALLTFAIVFYFNYFAKGFLKLSAILNGMVIGYLISLALGMVSFEPVQNAKIVQVITPFHFGLDFQLVPIFTLVVMFIVDAVQAIGQFTATTVGAMDRDATDEELSGGIMGSGFTNFIGSLFGSIPVATFGQNVGLVTVTKVINKYVLVFASVILLIAGFVPKVAALLTTIPYAVIGGATISVFASISMTGIRMIASQEMTPRNTGVVGTALAFGIGVTLSTGSLAGFPTWVTTIFGNSEVILTTLVAVLLNVILKPKKRVALE
- protein production: not failed

Sequence: RSAHLRVRQLPHAPEHPVATLSTVERRAINLTWTKPFDGNSPLIRYILEMSENNAPWTVLLASVDPKATSVTVKGLVPARSYQFRLCAVNDVGKGQFSKDTERVSLPE
- protein production: not failed

Sequence: MPAAAYWLPASDETPLYTRHWPSATAVGAVMLSHGMAEHAGRYERLAAALNAAGYHFYAIDQRGHGRTAEADELGHFADQGGWGKVVGDLASLNHHIRQQHPELPIFLLGHSMGSYISMAYLLHHSCSLQGAILSGSNYQPQALYRIARLIARFERWRQGPLGKSALIDFLSFGSFNKAFKPNRTAFDWLSRDPQEVDRYVADPLCGFRCSNQLWVDLLGGLADITPPTHLRQIDADLPLLIIGGERDPVSQGKRLGDLADALRGAGLRQVTLKTYPEARHELFNESNRDAVTQDLIDWLEQALRHRRDHST
- protein production: failed

Sequence: SDILKDPPSEANSIQSANATTKTSETNHTSRPRLKNVDRSTAQQLAVTVGNVTVIITDFKEK
- protein production: failed

Sequence: MYTECAYITVINNKARLFFMNMKTSFIAAAVALATVYSFSVSAVQKDITVTANIDSTLELLQADGSSLPSTMKLDFMPGKGLVHKSLQTRLYSNDQTKSVNVKLLNAPQLINVLDPTKTIDMEVTLGGRSLTTTNSVLEAKTLFPDGKTGDASALLNLDIGQKAGAALQNLPAGEYSGLVSLVISQAVTAGLEHHHHHH
- protein production: failed

Sequence: MRTLTTLLGNSQKLDGGAMFGNAPRALWSRWMQPDAENRIDLGCRALLVRDGERNVLVEAGIGAFFPPALRQRYGVQEERHVLLDSLAAVGLDDADIDVVLLTHLHFDHAGGLLAAWEEGQPARLLFPNAHFVSGRRHWQRARQPHPRDRASFVPELLDLLQASGRLELLDDGERSAHLGEGWRFHFSEGHTPGQMLPEIAMPDGPVVFSGDLIPGAPWVHLPLTMGYDRFPEGLIEEKERLLDSLIARNGRLVFTHDPCVAMGRVRRDEQERYSLYDTLERVENLEA
- protein production: failed

Sequence: MANYPKELPAQTQSRQPGIESEMNPSPVYEYEDYKGADKLKGKVALITGGDSGIGRAVSVAYAKEGADIAIVYKDEHEDAEETKKRVEQEGVKCLLIAGDVGEEEFCNEAVEKTVKELGGLDILVNNAGEQHPKESIKDITSEQLHRTFKTNFYSQFYLTKKAIDYLKPGSAIINTTSINPYVGNPTLIDYTATKGAINAFTRTMAQALVKDGIRVNAVAPGPIWTPLIPATFPEETVAQFGQDTPMGRPGQPVEHVGCYVLLASDESSYMTGQTLHVNGGNFVT
- protein production: not failed

Sequence: MVQIQGCVVAAALCAVITLIAMQWLMAFDAANLVMLYLLGVVVVALFYGRWPSVVATVINVVSFDLFFIAPRGTLAVSDVQYLLTFAVMLTVGLVIGNLTAGVRYQA
- protein production: not failed

Sequence: MKRREVLQAGMALGGLAGLGRALAQGGFTLTLVHTNDTHAHLEPVELTLSGEKTPVGGVARRVALFDRVWARAKNPLFLDAGDVFQGTLYFNQYRGLADRYFMHRLRYRAMALGNHEFDLGPGPLADFLKGARFKVVSANVDASREPRLKGLFAPYAVVVVGGERVGIIGLTTPDTREISNPGPTVAFLDPYESAQKAVYELLAKGVNKIVVLSHLGYGEDLKLARRLVGVQVIVGGHSHTLLGSFPHKELSPAGPYPTVVKNPEGKDVLVVQAWEWGKVVGLLEVTFDAKGELLAYKGEALLMTPEAAPEDFFAKEALLAYAQPVMALMQQVIAEAKVDLVGERAVVRRRESNLGNLITDGMLWKTRNAGTQIALQNGGGIRASIPKGPITVGKVYEVLPFGNTLVVMDLKGKEILAALENGVSQWENTAGRFLQVSGLRYAFDLSRPAGSRVVRVEVKTEKGYVPLDLEATYRVVVNNFIANGGDGFTVLKEAQGYRVDTGFSDAESFMDYLKELKVVEAGLEGRIEVLNEPKGERPAYFAYRVPGLVGV
- protein production: not failed

Sequence: NIGSAVPRGELVLAMEKIGKLLQERGGSVVIRGHTDGRQFKGEANDNWRLSMDRAHSAYYMLVRGGLSEERVKQVSGFADRRLQVPSNPLADANRRIEILLEADR
- protein production: failed

Sequence: MSQIFVVFSSDPEILKEIVREIKRQGVRVVLLYSDQDEKRRRERLEEFEKQGVDVRTVEDKEDFRENIREIWERYPQLDVVVIVTTDDKEWIKDFIEEAKERGVEVFVVYNNKDDDRRKEAQQEFRSDGVDVRTVSDKEELIEQVRRFVRKVGSLEHHHHHH
- protein production: not failed

Sequence: MPVYLYYGEDTYSLNQKIDHLVNQNVHAEWKDFNYIKLSGNEKNIAAKVFTEVMTLPFGEGNKIVHTDSDHLIGSLSNEDNNQELENQLSRIPASNILLITSNKKPDSRRTVVKTILKYAQQEEFPLVPCWDKKGIVNLIGKYAAIHQVKFTPDVTDYLVEAIGNNTARVDSEFAKLAVYASEKIISLEEIKQLVSNHNTDYQKLTIAMLRNHSNLAIAQVDKLLDSNEHPLKIVATLTSFFRTWLITKAGVEARLSDIKIAEIAEVKNPKRLYYLKDEIKFVGVQKLKNSLTLLLQLETELKSGTNNLISRIIEICMI
- protein production: failed

Sequence: MLICNDKSNPKTLLEEIMALRPWRKGPFEISQIKIDSEWDSSIKWDLVKNATPLKDKVVADVGCNNGYYLFKMLEHGPKSLVGFDPGVLVKKQFEFLAPFFDKEKKIIYESLGVEDLHEKYPNAFDVIFCLGVLYHRKSPLEALKALYHALKIKGELVLDTLIIDSPLDIALCPKKTYAKMKNVYFIPSVSALKGWCERVGFENFEILSVLKTTPKEQRKTDFILGQSLEDFLDKTDPSKTLEGYDAPLRGYFKMLK
- protein production: failed

Sequence: MGIKNDLEIRLQKLQQQGNFKNYLEQYPTDASTAAYFLIEIYNDGNIGGRSVIDAGTGNGILACGSYLLGAESVTAFDIDPDAIETAKRNCGGVNFMVADVSEISGKYDTWIMNPPFGSVVKHSDRAFIDKAFETSMWIYSIGNAKARDFLRREFSARGDVFREEKVYITVPRIYRHHSYDRARIEAVIFGVRNHSF
- protein production: not failed

Sequence: MSEVSVLLLAVILDLLIGEPPHRLHPVVWMGSAVEWMRNILGNSRISGIILTIAVAAPFTLPLFLINHLQDPLNLIISSILLSAVISIRMLVTSALEVGGSLKEDIEDARRKLSMLVSRDTTSLSDEQITSAAIETLTENITDSVTAPIFYFILLGLPGAFLYRVVNTLDAMVGYLDSENRDIGWFPARLDDILNYIPSRITGVLMVPAALLLGMNWRGSFRILLRDARRTPSPNSGFTMAAAAGALSVQLEKPGVYVLGDPCDGLDNEKLLDAVKLSSLTLILFTLAAAGVMLVIP
- protein production: failed

Sequence: MKKSKRKNAQAQEAQETEVLVQEEAEELPEFPEGEPDPDLEDPDLTLEDDLLDLPEEGEGLDLEEEEEDLPIPKISTSDPVRQYLHEIGQVPLLTLEEEVELARKVEEGMEAIKKLSEITGLDPDLIREVVRAKILGSARVRHIPGLKETLDPKTVEEIDQKLKSLPKEHKRYLHIAREGEAARQHLIEANLRLVVSIAKKYTGRGLSFLDLIQEGNQGLIRAVEKFEYKRRFKFSTYATWWIRQAINRAIADQARTIRIPVHMVETINKLSRTARQLQQELGREPTYEEIAEAMGPGWDAKRVEETLKIAQEPVSLETPIGDEKDSFYGDFIPDEHLPSPVDAATQSLLSEELEKALSKLSEREAMVLKLRKGLIDGREHTLEEVGAFFGVTRERIRQIENKALRKLKYHESRTRKLRDFLD
- protein production: not failed

Sequence: MQFGIFTVGDVTPDPTTGRTPTEHERIKAMTTIAKHAEDVGLDVFATGEHHNPPFVPSSPTTMLGYLAAQTEKIILSTSTTLITTNDPVKIAEDYAMLQHLADGRVDLMMGRGNTAPVYPWFGQDIRQGIPLALEHYRLLRRLWDEDVVDWQGQFRTPLQGFTSTPRPLDGIAPFVWHGSIRSPEIAEIAAFHGDGFFANNIFWPKEHYIALINLYRERYEHYGHGRADQAIVGLGGQVFMRRNAKDAVDEFRPYFDNAPVYGHGPSLEDFTEQTPLTVGTPEQVIEKTLTFADFFGDYQRQLFLVDHAGLPLKTVLEQLDLLGGEVVPVLRKEFAARR
- protein production: failed

Sequence: RDITARVQAEENKRRLAEVVEANPDPVLFIQPGGAVTYLNPAARRTLGLGDGQAMPPLAAILSAAVLDSLQREGWDRAEHSGRWNIEARLQPPAGGASVPVSLMLLAHRAASGERFYSLVAHD
- protein production: failed

Sequence: GYAVSVRVGGKEHRHWERYDIDSDFLIPADSFDFVIGRLGPEAAIPDLSGESCEVVIDGQIVMTGIIGSQRHGKSKGSRELSLSGRDLAGFLVDCSAPQLNVKGMTVLDAAKKLAAPWPQIKAVVLKAENNPALGKIDIEPGETVWQALTHIANSVGLHPWLEPDGTLVVGGADYSSPPVATLCWSRTDSRCNIERMDIEWDTDNRFSEVTFLAQSHGRSGDSAKHDLKWVYKDPTMTLHRPKTVVVSDADNLAALQKQAKKQLADWRLEGFTLTITVGGHKTRDGVLWQPGLRVHVIDDEHGIDAVFFLMGRRFMLSRMDGTQTELRLKEDGIWTPDAYPK
- protein production: not failed
